According to patent US20050250692A1:

Columns and labels:
[1] = target: acidic pH binding sites of PEA-13 cells; assay: competition with 125I-α2M* binding to PEA-13 cells at acidic pH
[2] = target: acidic pH binding sites of Mv1Lu cells; assay: Scatchard plot analysis of 125I-α2M* binding to Mv1Lu cells at pH 5
[3] = target: acidic pH binding sites of Mv1Lu cells; assay: concentration dependence of 125I-α2M* binding to Mv1Lu cells at pH 5
[4] = target: acidic pH binding sites of MEF cells; assay: competition with 125I-α2M* binding to MEF cells at pH 5.5

B1: α2M activated by methylamine (α2M*) (ligand, human, UniProt P01023 24-1474, looked up)
chain: SVSGKPQYMVLVPSLLHTETTEKGCVLLSYLNETVTVSASLESVRGNRSLFTDLEAENDVLHCVAFAVPKSSSNEEVMFLTVQVKGPTQEFKKRTTVMVKNEDSLVFVQTDKSIYKPGQTVKFRVVSMDENFHPLNELIPLVYIQDPKGNRIAQWQSFQLEGGLKQFSFPLSSEPFQGSYKVVVQKKSGGRTEHPFTVEEFVLPKFEVQVTVPKIITILEEEMNVSVCGLYTYGKPVPGHVTVSICRKYSDASDCHGEDSQAFCEKFSGQLNSHGCFYQQVKTKVFQLKRKEYEMKLHTEAQIQEEGTVVELTGRQSSEITRTITKLSFVKVDSHFRQGIPFFGQVRLVDGKGVPIPNKVIFIRGNEANYYSNATTDEHGLVQFSINTTNVMGTSLTVRVNYKDRSPCYGYQWVSEEHEEAHHTAYLVFSPSKSFVHLEPMSHELPCGHTQTVQAHYILNGGTLLGLKKLSFYYLIMAKGGIVRTGTHGLLVKQEDMKGHFSISIPVKSDIAPVARLLIYAVLPTGDVIGDSAKYDVENCLANKVDLSFSPSQSLPASHAHLRVTAAPQSVCALRAVDQSVLLMKPDAELSASSVYNLLPEKDLTGFPGPLNDQDNEDCINRHNVYINGITYTPVSSTNEKDMYSFLEDMGLKAFTNSKIRKPKMCPQLQQYEMHGPEGLRVGFYESDVMGRGHARLVHVEEPHTETVRKYFPETWIWDLVVVNSAGVAEVGVTVPDTITEWKAGAFCLSEDAGLGISSTASLRAFQPFFVELTMPYSVIRGEAFTLKATVLNYLPKCIRVSVQLEASPAFLAVPVEKEQAPHCICANGRQTVSWAVTPKSLGNVNFTVSAEALESQELCGTEVPSVPEHGRKDTVIKPLLVEPEGLEKETTFNSLLCPSGGEVSEELSLKLPPNVVEESARASVSVLGDILGSAMQNTQNLLQMPYGCGEQNMVLFAPNIYVLDYLNETQQLTPEIKSKAIGYLNTGYQRQLNYKHYDGSYSTFGERYGRNQGNTWLTAFVLKTFAQARAYIFIDEAHITQALIWLSQRQKDNGCFRSSGSLLNNAIKGGVEDEVTLSAYITIALLEIPLTVTHPVVRNALFCLESAWKTAQEGDHGSHVYTKALLAYAFALAGNQDKRKEVLKSLNEEAVKKDNSVHWERPQKPKAPVGHFYEPQAPSAEVEMTSYVLLAYLTAQPAPTSEDLTSATNIVKWITKQQNAQGGFSSTQDTVVALHALSKYGAATFTRTGKAAQVTIQSSGTFSSKFQVDNNNRLLLQQVSLPELPGEYSMKVTGEGCVYLQTSLKYNILPEKEEFPFALGVQTLPQTCDEPKAHTSFQISLSVSYTGSRSASNMAIVDVKMVSGFIPLKPTVKMLERSNHVSRTEVSSNHVLIYLDKVSNQTLSLFFTVLQDVPVRDLKPAIVKVYDYYETDEFAIAEYNAPCSKDLGNA
modifications: activated by methylamine; 125I-labelled where used as tracer
IC50 [1]: 120 nM | Kd [2]: 51 nM | sites/cell [2]: 1e+06 sites/cell | saturating concentration [3]: 120 nM | IC50 [4]: 50 nM
